Data taken from paper PMC10070186, “Unusual peptide-binding proteins guide pyrroloindoline alkaloid formation in crocagin biosynthesis” (Nature Chemistry, 2023).

Legend:
[1] = molecular target: CgnE (Chondromyces crocatus CM c5); assay: MST; microscale thermophoresis of two components; which one was titrated is told only in Fig. 3c
[2] = molecular target: CgnB (Chondromyces crocatus CM c5); assay: as above

CgnE (Chondromyces crocatus CM c5), sequence (main, as listed by the source): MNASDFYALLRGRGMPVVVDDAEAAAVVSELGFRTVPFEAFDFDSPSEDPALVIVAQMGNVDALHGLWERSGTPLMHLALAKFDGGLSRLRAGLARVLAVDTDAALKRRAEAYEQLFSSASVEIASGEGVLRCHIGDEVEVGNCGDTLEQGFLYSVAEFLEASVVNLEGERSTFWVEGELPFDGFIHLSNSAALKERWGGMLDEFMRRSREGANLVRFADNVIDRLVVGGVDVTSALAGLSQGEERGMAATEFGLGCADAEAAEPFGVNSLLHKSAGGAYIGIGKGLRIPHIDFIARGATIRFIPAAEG

A Kd [1] of 1.8 µM and a Kd [2] of 10.5 µM were found for MKKTIKQISAGDRSKKGNIYW (modifications not checked) [CgnA, crocagin precursor peptide] in this work.
